This assay concerns the target C3 convertase complex (UniProt P01024 23-1663; P00751 260-764). In words: cell-based or functional assay.
For C3 convertase activity % of the control in this document: test concentration or dose not given here.

Sequence of C3 convertase complex (P01024 23-1663, chain 1 of 2): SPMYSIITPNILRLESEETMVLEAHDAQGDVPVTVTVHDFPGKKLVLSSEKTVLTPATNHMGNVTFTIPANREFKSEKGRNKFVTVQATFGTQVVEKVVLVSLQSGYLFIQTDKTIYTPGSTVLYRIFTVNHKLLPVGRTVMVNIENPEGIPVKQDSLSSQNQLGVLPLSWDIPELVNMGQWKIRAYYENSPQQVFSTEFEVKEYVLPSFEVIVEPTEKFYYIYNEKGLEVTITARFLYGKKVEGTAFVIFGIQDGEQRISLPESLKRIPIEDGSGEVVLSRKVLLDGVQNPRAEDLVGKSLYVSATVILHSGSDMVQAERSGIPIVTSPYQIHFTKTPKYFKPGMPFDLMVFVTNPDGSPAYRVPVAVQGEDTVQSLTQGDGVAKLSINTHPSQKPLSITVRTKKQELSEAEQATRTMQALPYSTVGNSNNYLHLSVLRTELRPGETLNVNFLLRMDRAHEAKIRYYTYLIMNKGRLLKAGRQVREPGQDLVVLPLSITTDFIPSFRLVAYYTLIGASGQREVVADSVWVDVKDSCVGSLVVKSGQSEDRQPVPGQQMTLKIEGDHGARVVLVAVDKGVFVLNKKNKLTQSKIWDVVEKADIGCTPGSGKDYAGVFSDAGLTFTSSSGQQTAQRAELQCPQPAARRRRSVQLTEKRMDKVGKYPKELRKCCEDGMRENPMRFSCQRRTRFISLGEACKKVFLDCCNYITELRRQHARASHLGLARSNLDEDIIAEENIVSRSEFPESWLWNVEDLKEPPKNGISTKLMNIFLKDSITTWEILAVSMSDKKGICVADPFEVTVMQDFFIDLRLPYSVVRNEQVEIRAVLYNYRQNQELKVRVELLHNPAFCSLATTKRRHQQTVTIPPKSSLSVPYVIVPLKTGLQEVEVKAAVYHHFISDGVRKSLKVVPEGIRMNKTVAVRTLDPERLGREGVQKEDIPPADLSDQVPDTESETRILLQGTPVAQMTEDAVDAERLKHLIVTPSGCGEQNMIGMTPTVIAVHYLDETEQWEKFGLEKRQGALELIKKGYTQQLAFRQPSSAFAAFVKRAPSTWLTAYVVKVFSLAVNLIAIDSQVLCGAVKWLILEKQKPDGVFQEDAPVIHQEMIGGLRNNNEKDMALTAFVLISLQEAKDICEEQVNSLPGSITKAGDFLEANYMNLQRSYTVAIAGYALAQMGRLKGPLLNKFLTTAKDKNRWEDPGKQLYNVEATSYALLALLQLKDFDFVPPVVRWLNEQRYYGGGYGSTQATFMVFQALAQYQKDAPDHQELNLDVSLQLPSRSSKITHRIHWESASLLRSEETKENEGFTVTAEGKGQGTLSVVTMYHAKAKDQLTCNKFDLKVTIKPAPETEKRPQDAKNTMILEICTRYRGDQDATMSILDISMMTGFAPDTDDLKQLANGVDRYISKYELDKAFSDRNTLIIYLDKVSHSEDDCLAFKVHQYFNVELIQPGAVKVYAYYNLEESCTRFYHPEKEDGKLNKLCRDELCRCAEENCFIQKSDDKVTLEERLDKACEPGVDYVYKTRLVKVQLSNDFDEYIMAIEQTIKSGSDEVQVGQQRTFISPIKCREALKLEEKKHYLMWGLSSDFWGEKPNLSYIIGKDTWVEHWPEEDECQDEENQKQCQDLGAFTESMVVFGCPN
Sequence of C3 convertase complex (P00751 260-764, chain 2 of 2): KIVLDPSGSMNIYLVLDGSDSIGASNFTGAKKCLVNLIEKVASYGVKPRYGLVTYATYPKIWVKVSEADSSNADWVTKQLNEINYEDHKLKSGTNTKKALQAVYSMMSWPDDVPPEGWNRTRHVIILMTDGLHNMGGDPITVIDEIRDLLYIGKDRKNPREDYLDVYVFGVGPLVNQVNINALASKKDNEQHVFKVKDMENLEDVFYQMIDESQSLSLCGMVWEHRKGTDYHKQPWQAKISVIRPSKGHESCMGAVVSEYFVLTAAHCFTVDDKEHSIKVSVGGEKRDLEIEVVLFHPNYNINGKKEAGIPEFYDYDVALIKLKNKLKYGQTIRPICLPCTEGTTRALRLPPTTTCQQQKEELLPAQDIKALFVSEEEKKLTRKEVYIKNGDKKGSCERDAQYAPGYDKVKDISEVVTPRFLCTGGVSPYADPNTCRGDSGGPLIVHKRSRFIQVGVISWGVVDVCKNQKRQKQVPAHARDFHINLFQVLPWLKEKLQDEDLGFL

B1: pCEP4-1NT11-19CT20 (other)
chain: EDCNELPPRRNTEILTGSWSDQTYPEGTQAIYKCRPGYRSLGNVIMVCRKGEWVALNPLRKCQKRPCGHPGDTPFGTFTLTGGNVFEYGVKAVYTCNEGYQLLGEINYRECDTDGWTNDIPICEVVKCLPVTAPENGKIVSSAMEPDREYHFGQAVRFVCNSGYKIEGDEEMHCSDDGFWSKEKPKCVEISCKSPDVINGSPISQKIIYKENERFQYKCNMGYEYSERGDAVCTESGWRPLPSCEEKSCDNPYIPNGDYSPLRIKHRTGDEITYQCRNGFYPATRGNTAKCTSTGWIPAPRCTLKPCDYPDIKHGGLYHENMRRPYFPVAVGKYYSYYCDEHFETPSGSYWDHIHCTQDGWSPAVPCLRKCYFPYLENGYNQNHGRKFVQGKSIDVACHPGYALPKAQTTVTCMENGWSPTPRCIRVKTCSKSSIDIENGFISESQYTYALKEKAKYQCKLGYVTADGETSGSITCGKDGWSAQPTCIKSCDIPVFMNARTKNDFTWFKLNDTLDYECHDGYESNTGSTTGSIVCGYNGWSDLPICYERECELPKIDVHLVPDRKKDQYKVGEVLKFSCKPGFTIVGPNSVQCYHFGLSPDLPICKEQVQSCGPPPELLNGNVKEKTKEEYGHSEVVEYYCNPRFLMKGPNKIQCVDGEWTTLPVCIVEESTGASGCGPPPPIDNGDITSFPLSVYAPASSVEYQCQNLYQLEGNKRITCRNGQWSEPPKCLHPCVISREIMENYNIALRWTAKQKLYSRTGESVEFVCKRGYRLSSRSHTLRTTCWDGKLEYPTCAKRGGSGHHHHHH
As to B1, the “C3 convertase activity % of the control” value is 5 % of the control and the “C3 convertase activity IC50” value was determined as 1.78 µg/mL.

B2: pCEP4-1NT8-12CT20 (other)
chain: EDCNELPPRRNTEILTGSWSDQTYPEGTQAIYKCRPGYRSLGNVIMVCRKGEWVALNPLRKCQKRPCGHPGDTPFGTFTLTGGNVFEYGVKAVYTCNEGYQLLGEINYRECDTDGWTNDIPICEVVKCLPVTAPENGKIVSSAMEPDREYHFGQAVRFVCNSGYKIEGDEEMHCSDDGFWSKEKPKCVEISCKSPDVINGSPISQKIIYKENERFQYKCNMGYEYSERGDAVCTESGWRPLPSCEEKSCDNPYIPNGDYSPLRIKHRTGDEITYQCRNGFYPATRGNTAKCTSTGWIPAPRCTLKPCDYPDIKHGGLYHENMRRPYFPVAVGKYYSYYCDEHFETPSGSYWDHIHCTQDGWSPAVPCLRKCYFPYLENGYNQNYGRKFVQGKSIDVACHPGYALPKAQTTVTCMENGWSPTPRCIRVKTCSKSSIDIENGFISESQYTYALKEKAKYQCKLGYVTADGETSGSITCGKDGWSAQPTCIKSGASGCGDIPELEHGWAQLSSPPYYYGDSVEFNCSESFTMIGHRSITCIHGVWTQLPQCVAIDKLKKCKSSNLIILEEHLKNKKEFDHNSNIRYRCRGKEGWIHTVCINGRWDPEVNCSMAQIQLCPPPPQIPNSHNMTTTLNYRDGEKVSVLCQENYLIQEGEEITCKDGRWQSIPLCVEKIPCSQPPQIEHGTINSSRSSQESYAHGTKLSYTCEGGFRISEENETTCYMGKWSSPPQCEGLPCKSPPEISHGVVAHMSDSYQYGEEVTYKCFEGFGIDGPAIAKCLGEKWSHPPSCIKTDCLSLPSFENAIPMGEKKDVYKAGEQVTYTCATYYKMDGASNVTCINSRWTGRPTCRDTSCVNPPTVQNAYIVSRQMSKYPSGERVRYQCRSPYEMFGDEEVMCLNGNWTEPPQCKDSTGKCGPPPPIDNGDITSFPLSVYAPASSVEYQCQNLYQLEGNKRITCRNGQWSEPPKCLHPCVISREIMENYNIALRWTAKQKLYSRTGESVEFVCKRGYRLSSRSHTLRTTCWDGKLEYPTCAKRGGSGHHHHHH
B2: the “C3 convertase activity % of the control” value was 4 % of the control and the “C3 convertase activity IC50” value worked out at 1.87 µg/mL.

B3: pCEP4-1NT10-15CT20 (other)
chain: EDCNELPPRRNTEILTGSWSDQTYPEGTQAIYKCRPGYRSLGNVIMVCRKGEWVALNPLRKCQKRPCGHPGDTPFGTFTLTGGNVFEYGVKAVYTCNEGYQLLGEINYRECDTDGWTNDIPICEVVKCLPVTAPENGKIVSSAMEPDREYHFGQAVRFVCNSGYKIEGDEEMHCSDDGFWSKEKPKCVEISCKSPDVINGSPISQKIIYKENERFQYKCNMGYEYSERGDAVCTESGWRPLPSCEEKSCDNPYIPNGDYSPLRIKHRTGDEITYQCRNGFYPATRGNTAKCTSTGWIPAPRCTLKPCDYPDIKHGGLYHENMRRPYFPVAVGKYYSYYCDEHFETPSGSYWDHIHCTQDGWSPAVPCLRKCYFPYLENGYNQNHGRKFVQGKSIDVACHPGYALPKAQTTVTCMENGWSPTPRCIRVKTCSKSSIDIENGFISESQYTYALKEKAKYQCKLGYVTADGETSGSITCGKDGWSAQPTCIKSCDIPVFMNARTKNDFTWFKLNDTLDYECHDGYESNTGSTTGSIVCGYNGWSDLPICYERECELPKIDVHLVPDRKKDQYKVGEVLKFSCKPGFTIVGPNSVQCYHFGLSPDLPICKEQVQSGASGCSQPPQIEHGTINSSRSSQESYAHGTKLSYTCEGGFRISEENETTCYMGKWSSPPQCEGLPCKSPPEISHGVVAHMSDSYQYGEEVTYKCFEGFGIDGPAIAKCLGEKWSHPPSCIKTDCLSLPSFENAIPMGEKKDVYKAGEQVTYTCATYYKMDGASNVTCINSRWTGRPTCRDTSCVNPPTVQNAYIVSRQMSKYPSGERVRYQCRSPYEMFGDEEVMCLNGNWTEPPQCKDSTGKCGPPPPIDNGDITSFPLSVYAPASSVEYQCQNLYQLEGNKRITCRNGQWSEPPKCLHPCVISREIMENYNIALRWTAKQKLYSRTGESVEFVCKRGYRLSSRSHTLRTTCWDGKLEYPTCAKRGGSGHHHHHH
In the case of B3, the “C3 convertase activity % of the control” value was 6 % of the control and the “C3 convertase activity IC50” value worked out at 1.17 µg/mL.

B4: pCEP4-1NT9-15CT20 (other)
chain: EDCNELPPRRNTEILTGSWSDQTYPEGTQAIYKCRPGYRSLGNVIMVCRKGEWVALNPLRKCQKRPCGHPGDTPFGTFTLTGGNVFEYGVKAVYTCNEGYQLLGEINYRECDTDGWTNDIPICEVVKCLPVTAPENGKIVSSAMEPDREYHFGQAVRFVCNSGYKIEGDEEMHCSDDGFWSKEKPKCVEISCKSPDVINGSPISQKIIYKENERFQYKCNMGYEYSERGDAVCTESGWRPLPSCEEKSCDNPYIPNGDYSPLRIKHRTGDEITYQCRNGFYPATRGNTAKCTSTGWIPAPRCTLKPCDYPDIKHGGLYHENMRRPYFPVAVGKYYSYYCDEHFETPSGSYWDHIHCTQDGWSPAVPCLRKCYFPYLENGYNQNYGRKFVQGKSIDVACHPGYALPKAQTTVTCMENGWSPTPRCIRVKTCSKSSIDIENGFISESQYTYALKEKAKYQCKLGYVTADGETSGSITCGKDGWSAQPTCIKSCDIPVFMNARTKNDFTWFKLNDTLDYECHDGYESNTGSTTGSIVCGYNGWSDLPICYEREGASGCSQPPQIEHGTINSSRSSQESYAHGTKLSYTCEGGFRISEENETTCYMGKWSSPPQCEGLPCKSPPEISHGVVAHMSDSYQYGEEVTYKCFEGFGIDGPAIAKCLGEKWSHPPSCIKTDCLSLPSFENAIPMGEKKDVYKAGEQVTYTCATYYKMDGASNVTCINSRWTGRPTCRDTSCVNPPTVQNAYIVSRQMSKYPSGERVRYQCRSPYEMFGDEEVMCLNGNWTEPPQCKDSTGKCGPPPPIDNGDITSFPLSVYAPASSVEYQCQNLYQLEGNKRITCRNGQWSEPPKCLHPCVISREIMENYNIALRWTAKQKLYSRTGESVEFVCKRGYRLSSRSHTLRTTCWDGKLEYPTCAKRGGSGHHHHHH
With B4, the “C3 convertase activity % of the control” value is 5 % of the control and the “C3 convertase activity IC50” value stood at 2.19 µg/mL.

B5: pCEP4-1NT11-14CT20 (other)
chain: EDCNELPPRRNTEILTGSWSDQTYPEGTQAIYKCRPGYRSLGNVIMVCRKGEWVALNPLRKCQKRPCGHPGDTPFGTFTLTGGNVFEYGVKAVYTCNEGYQLLGEINYRECDTDGWTNDIPICEVVKCLPVTAPENGKIVSSAMEPDREYHFGQAVRFVCNSGYKIEGDEEMHCSDDGFWSKEKPKCVEISCKSPDVINGSPISQKIIYKENERFQYKCNMGYEYSERGDAVCTESGWRPLPSCEEKSCDNPYIPNGDYSPLRIKHRTGDEITYQCRNGFYPATRGNTAKCTSTGWIPAPRCTLKPCDYPDIKHGGLYHENMRRPYFPVAVGKYYSYYCDEHFETPSGSYWDHIHCTQDGWSPAVPCLRKCYFPYLENGYNQNHGRKFVQGKSIDVACHPGYALPKAQTTVTCMENGWSPTPRCIRVKTCSKSSIDIENGFISESQYTYALKEKAKYQCKLGYVTADGETSGSITCGKDGWSAQPTCIKSCDIPVFMNARTKNDFTWFKLNDTLDYECHDGYESNTGSTTGSIVCGYNGWSDLPICYERECELPKIDVHLVPDRKKDQYKVGEVLKFSCKPGFTIVGPNSVQCYHFGLSPDLPICKEQVQSCGPPPELLNGNVKEKTKEEYGHSEVVEYYCNPRFLMKGPNKIQCVDGEWTTLPVCIVEESTGASGCPPPPQIPNSHNMTTTLNYRDGEKVSVLCQENYLIQEGEEITCKDGRWQSIPLCVEKIPCSQPPQIEHGTINSSRSSQESYAHGTKLSYTCEGGFRISEENETTCYMGKWSSPPQCEGLPCKSPPEISHGVVAHMSDSYQYGEEVTYKCFEGFGIDGPAIAKCLGEKWSHPPSCIKTDCLSLPSFENAIPMGEKKDVYKAGEQVTYTCATYYKMDGASNVTCINSRWTGRPTCRDTSCVNPPTVQNAYIVSRQMSKYPSGERVRYQCRSPYEMFGDEEVMCLNGNWTEPPQCKDSTGKCGPPPPIDNGDITSFPLSVYAPASSVEYQCQNLYQLEGNKRITCRNGQWSEPPKCLHPCVISREIMENYNIALRWTAKQKLYSRTGESVEFVCKRGYRLSSRSHTLRTTCWDGKLEYPTCAKRGGSGHHHHHH
For the molecule B5, the “C3 convertase activity % of the control” value is 6 % of the control and the “C3 convertase activity IC50” value was 1.99 µg/mL.

B6: pCEP4-1NT7-12CT20 (other)
chain: EDCNELPPRRNTEILTGSWSDQTYPEGTQAIYKCRPGYRSLGNVIMVCRKGEWVALNPLRKCQKRPCGHPGDTPFGTFTLTGGNVFEYGVKAVYTCNEGYQLLGEINYRECDTDGWTNDIPICEVVKCLPVTAPENGKIVSSAMEPDREYHFGQAVRFVCNSGYKIEGDEEMHCSDDGFWSKEKPKCVEISCKSPDVINGSPISQKIIYKENERFQYKCNMGYEYSERGDAVCTESGWRPLPSCEEKSCDNPYIPNGDYSPLRIKHRTGDEITYQCRNGFYPATRGNTAKCTSTGWIPAPRCTLKPCDYPDIKHGGLYHENMRRPYFPVAVGKYYSYYCDEHFETPSGSYWDHIHCTQDGWSPAVPCLRKCYFPYLENGYNQNYGRKFVQGKSIDVACHPGYALPKAQTTVTCMENGWSPTPRCIRVKTGASGCGDIPELEHGWAQLSSPPYYYGDSVEFNCSESFTMIGHRSITCIHGVWTQLPQCVAIDKLKKCKSSNLIILEEHLKNKKEFDHNSNIRYRCRGKEGWIHTVCINGRWDPEVNCSMAQIQLCPPPPQIPNSHNMTTTLNYRDGEKVSVLCQENYLIQEGEEITCKDGRWQSIPLCVEKIPCSQPPQIEHGTINSSRSSQESYAHGTKLSYTCEGGFRISEENETTCYMGKWSSPPQCEGLPCKSPPEISHGVVAHMSDSYQYGEEVTYKCFEGFGIDGPAIAKCLGEKWSHPPSCIKTDCLSLPSFENAIPMGEKKDVYKAGEQVTYTCATYYKMDGASNVTCINSRWTGRPTCRDTSCVNPPTVQNAYIVSRQMSKYPSGERVRYQCRSPYEMFGDEEVMCLNGNWTEPPQCKDSTGKCGPPPPIDNGDITSFPLSVYAPASSVEYQCQNLYQLEGNKRITCRNGQWSEPPKCLHPCVISREIMENYNIALRWTAKQKLYSRTGESVEFVCKRGYRLSSRSHTLRTTCWDGKLEYPTCAKRGGSGHHHHHH
In the case of B6, the “C3 convertase activity % of the control” value was 7 % of the control and the “C3 convertase activity IC50” value turned out to be 2.04 µg/mL.

(Values after patent publication US20170190753A1 (LABORATOIRE FRANCAIS DU FRACTIONNEMENT ET DES …, published 2017).)
